B1: S1F2: sRAGE-Ig fraction from untreated cells, 2-glycan occupancy (protein)
chain: QNITARIGEPLVLKCKGAPKKPPQRLEWKLNTGRTEAWKVLSPQGGGPWDSVARVLPNGSLFLPAVGIQDEGIFRCQAMNRNGKETKSNYRVRVYQIPGKPEIVDSASELTAGVPNKVGTCVSEGSYPAGTLSWHLDGKPLVPNEKGVSVKEQTRRHPETGLFTLQSELMVTPAPGGDPRPTFSCSFSPGLPRHRALRTAPIQPRVWEPVPLEEVQLVVEPEGGAVAPPSVFLFPPKPKDTLMISRTPEVTCVVVDVSHEDPEVKFNWYVDGVEVHNAKTKPREEQYNSTYRVVSVLTVLHQDWLNGKEYKCKVSNKALPAPIEKTISKAKGQPREPQVYTLPPSRDELTKNQVSLTCLVKGFYPSDIAVEWESNGQPENNYKTTPPVLDSDGPFFLYSKLTVDKSRWQQGNVFSCSVMHEALHNHYTQKSLSLSPGK
B2: S2F3: sRAGE-Ig fraction from TMYCN treated cells, 0-glycan occupancy (aglycosylated variant) (protein)
chain: B1 chain
modifications: non-natural residues
B3: S1F1: sRAGE-Ig fraction from untreated cells, 3-glycan occupancy (protein)
chain: B1 chain
B4: S2F1: sRAGE-Ig fraction from TMYCN treated cells, 3-glycan occupancy (protein)
chain: B1 chain
B5: S2F2: sRAGE-Ig fraction from TMYCN treated cells, 2-glycan occupancy (protein)
chain: B1 chain

Columns and labels:
S100b = target: T1, S100b (Bos taurus, UniProt P02638); experiment: S100b binding ELISA; conditions: for Relative binding compared to control: binding to S100b relative to S1 control (untreated sRAGE-Ig)
T1 construct: purchased Calbiochem 559290
T1 sequence (P02638 1-92): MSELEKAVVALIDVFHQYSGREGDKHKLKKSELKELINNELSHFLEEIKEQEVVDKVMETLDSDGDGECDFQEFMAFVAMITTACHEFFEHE
Experimental: Peak fraction collection for S100b binding assay: sRAGE-Ig fusion protein samples were concentrated to 4.0 mg/mL using a 10K Amicon Ultra filtration column (Millipore, Bedford, Mass.) and then separated under the reversed-phase conditions for glycan site occupancy as described above. Three fractions representing the site occupancy variants of sRAGE-Ig were collected as triply glycosylated (fraction one, F1), doubly glycosylated (fraction two, F2), and aglycosylated (fraction three, F3). The collected samples were concentrated and exchanged into a stabilizing buffer. Protein concentration of the fraction samples was determined by 280 nm absorbance with a DU 650 spectrophotometer (Beckman Coulter, Fullerton, Calif.) before subjecting the protein to the S100b ELISA binding assay.
(§1) S100b binding ELISA: An ELISA assay plate was coated with 100 μL/well of 20 μg/mL S100b protein (Cat. No. 559290, Calbiochem, Gibbstown, N.J.) in coating buffer (Tris buffered saline [TBS], pH8.0, with 5 mM CaCl2) overnight at 4° C. The plate was then washed three times with blocking buffer (TBS pH8.0, with 5 mM CaCl2, 0.05% Tween20, and 1% bovine serum albumin [BSA]), and blocked with the blocking buffer for 1-1.5 hr. sRAGE-Ig fusion samples were prepared in a separate dilution plate, the highest concentration was 10 μg/mL in blocking buffer, with 1:4 serial dilution in blocking buffer down to 2.4 ng/mL. After blocking, the assay plate was washed with the blocking buffer and 100 μL of the samples were transferred from the dilution plate to the assay plate. The assay plate was incubated at room temperature for 2.5 hr. The assay plate was then washed three times with the blocking buffer, with 1 min soaking time between the washes. The horseradish peroxidase conjugated goat anti-human IgG (Cat. No. A2290, Sigma, St. Louis, Mo.) was added to the plate with 100 μL/well at 1:2500 dilution in the blocking buffer. The plate was incubated for 1 hr at room temperature. The assay plate was then washed three times with the blocking buffer again, and 100 μL 3,3′,5,5′-tetramethylbenzidine (TMB; Cat. No. 34022, Pierce, Rockford, Ill.) was added to each well and the plate was incubated for 8 minutes at room temperature. 100 μL of 1M H2SO4 was then added to each well, the plate was shaken and read at 450 nm on a microplate reader.

[1] = tested on: human Aβ peptides (Aβ1-40, Aβ1-28); experiment: Aβ peptide binding ELISA; conditions: for Relative binding compared to control: binding to Abeta relative to S1 control
Chain of human Aβ peptides (Aβ1-40, Aβ1-28) (P05067 672-699 limits assumed): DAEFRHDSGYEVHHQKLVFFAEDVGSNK
Experimental: as §1
Assay for Aβ peptide binding activities: Briefly, two human Aβ peptides were tested: Aβ1-40 (Catalogue# A-1153-2, Rpeptide), and Aβ1-28 (Catalogue#24232, AnaSpec). The plates were coated by 20 μg/mL peptide in 1% NH4OH overnight at 4° C. The plate was then washed with blocking buffer (TBS pH8.0, 0.05% Tween20, and 1% BSA) and blocked for 1 hr at room temperature. All the other steps were performed essentially as described previously herein for S100b binding assay, supra.

[2] = versus unfractionated untreated S1

Molecule	Relative binding compared to control (S100b) [%]	Relative binding compared to control [1] [%]	fold increase in binding to S100b compared to fully occupied 3-glycan version (S100b; versus S1F1)	fold increase in binding to S100b compared to S1 control (S100b; [2])	fold increase in binding to Abeta compared to fully occupied 3-glycan version ([1]; versus S2F1)	fold increase in binding to Abeta compared to S1 control [1, 2]
B1	173	170				
B2			ten-fold	five-fold	six-fold	three-fold
B3	46	102				
B4	20	49				
B5	180	238				

— patent US9034341B2, “Control of RAGE fusion protein glycosylation and RAGE fusion protein compositions” (TransTech Pharma, LLC, priority 2009, dated 2015)
